For series [1], the target named is Fluc-Ec2 (E. coli (virulence plasmid)) (UniProt Q6J5N4). The experiment in a line: SEC-MALS; SEC with static light scattering, refractive index and UV detectors; Superdex-75 in 400 mM NaF, 10 mM MES pH 6.5, 5 mM DM (detergent micelles). On the technique in general: SEC sorts molecules by how far they enter the pores of the column.
Series [2] concerns the molecule itself. The experiment in a line: single-molecule TIRF photobleaching; Cy5-labeled protein reconstituted at very low density (0.15 µg/mg lipid) in liposomes adhered to glass; counting of bleaching steps.
Series [3] concerns the molecule itself. Briefly: cross-linking; ~0.1 mg/ml purified protein in 20 mM MOPS pH 7.5, 100 mM NaCl, 10 mM NaF, 5 mM DM with 0.125% glutaraldehyde for 5-120 min; 15% SDS-PAGE.

Numbering of substitutions follows the chain as printed. Names and notes keep the numbering of the source.

What is called stoichiometry N is a count of units in the complex or per binding partner. Regarding “Fluc-Ec2 (from UniProt Q6J5N4 1-126) (natural protein)”, the stoichiometry N in series [1] came out at 2.

B1: Fluc-Bpe R29C labeled with Cy5-maleimide (natural protein)
chain: MLTYAPLNFIAIGIGATLGAWLRWVLGLCLNGAGWPWGTLTANLVGGYLIGVMVALIASHPEWPAWIRLAAVTGFLGGLTTFSTFSAETVDMLERGVYATAAAYAGASLAGSLAMTGLGLATVRLLLR
modifications: Cy5-maleimide on the unique cysteine R29C (labeling efficiency 72%)
notes: Fluc homologue Bpe from Bordatella pertussis (so in the source), NCBI NP_879990.1, naturally cysteine-free, with a single cysteine substitution; source: E. coli BL21-DE3, purified, labeled with Cy5-maleimide, reconstituted into liposomes at 0.15 µg/mg lipid
With B1, the “stoichiometry N” value in series [2] came to 2.

B2: Fluc-Bpe R29K (natural protein)
chain: B1 chain with C29K
notes: Fluc homologue Bpe from Bordatella pertussis (so in the source), NCBI NP_879990.1, lysine-less, with a single lysine in loop 1
As for B2, the binding result in series [3] is listed as “binds”.

B3: Fluc-Bpe R95K (natural protein)
chain: B1 chain with C29R, R95K
notes: Fluc homologue Bpe from Bordatella pertussis (so in the source), NCBI NP_879990.1, lysine-less, with a single lysine in loop 3
In the case of B3, the binding result in series [3] is “binds”.

B4: Fluc-Bpe T3C labeled with Cy5-maleimide (natural protein)
chain: B1 chain with T3C, C29R
modifications: Cy5-maleimide on the unique cysteine T3C (labeling efficiency 62%)
notes: as for B1
B4: in series [2], the binding result is recorded as “binds”.

Values taken from publication PMC3755343, “A family of fluoride-specific ion channels with dual-topology architecture” (eLife, 2013).
